Data as given in patent US20060257938A1, “Method of screening for drugs that block ligand binding to a lipid binding protein” (priority 2005, published 2006).
Where “and” joins values, the source holds several entries; their conditions need not be identical. Equal entries are not always repeated.

Tests used:
Type in all cases: binding
Conditions in all cases: response relative to ADIFAB2
[1] = Probe fluorescence ratio response to linolenic acid relative to ADIFAB2
Text: (§1) In an alternate preferred embodiment, the protein is rI-FABP that has Ala substituted for Leu at position 72 (rI-FABP-L72A) with the resulting probe named ADIFAB2. […] Other probes useful in embodiments of the invention are shown in Tables 1-6 and are also described in U.S. application Ser. No. 11/085,792, filed Mar. 21, 2005 which is incorporated herein by reference. The indicated substitutions are with reference to the ADIFAB protein of SEQ ID NO: 2.
(§2) ADIFAB2 also has an altered spectral response, making it especially useful for measurements of FFAu in blood samples (Apple et al, Clinical Proteomics, (2004) 1:41-44, U.S. patent application Ser. No. 10/670,958). The wavelengths at the maximum intensities emitted by these fluorescently-labeled I-FABP's in the absence of FFA is about 420 to 480 nm. The emission wavelengths at the maximum intensities emitted by these fluorescently-labeled I-FABP's with FFA bound are between about 495 to 580 nm. Experiments typically involve measuring the fluorescence response within both emission maxima or at wavelengths for which the effect of interfering molecules such as hemoglobin can be eliminated as described in U.S. application Ser. No. 10/670958 and PCT/US2004/030521 and the calculation of the ratio ‘R’ of the two fluorescence intensities. The baseline value for this ratio, measured in the absence of analyte, is designated R0.
(§3) The intensity ratio (“R” value) is determined as follows. The ratio is calculated using the following formula: R=Fλ1/Fλ2 wherein, Fλ1 is the measured fluorescence intensities (intensity of sample with probe present minus intensity of sample without probe present) at wavelength 1 and Fλ2 is the measured fluorescence intensities (intensity of sample with probe present minus intensity of sample without probe present) at wavelength 2. Then, for a given probe, ΔR, the difference in R value between the measurement in the presence of the test compound (agent) and in the absence of the test compound (agent), is calculated as follows: ΔR=R+agent−R0 In some embodiments, the ΔR value may then be compared to some reference, for example, an agent with a known affinity for a given probe, by ΔR/ΔRreference. Measurements of fluorescence intensities are obtained using standard techniques.

[2] = Probe fluorescence ratio response to oleic acid relative to ADIFAB2
Text: as §1, §2, §3

[3] = Probe fluorescence ratio response to linoleic acid relative to ADIFAB2
Text: as §1, §2, §3

[4] = Probe fluorescence ratio response to palmitic acid relative to ADIFAB2
Text: as §1, §2, §3

[5] = Probe fluorescence ratio response to arachidonic acid relative to ADIFAB2
Text: as §1, §2, §3

Molecule	DR/DR LNA [1]	DR/DR OA [2]	DR/DR LA [3]	DR/DR PA [4]	DR/DR AA ([5]; arachidonic acid)	DR/DR AA ([5]; Arachidonic acid)
117E, 72A (protein, listed as Rattus norvegicus, PEPTIDE (1)...(131) wild-type rat intestinal fatty acid binding protein) AFDGTWKVDRNENYEKFMEKMGINVVKRKLGAHDNLKLTITQEGNKFTVKESSNFRNIDVVFELGVDFAYSAADGTELTGTWTMEGNKLVGKFKRVDNGKELIAVREISGNELIQTETYEGVEAKRIFKKE	0.64 and 0.638	0.65 and 0.659	0.76 and 0.753	0.40 and 0.402	0.65 and 0.656	
117Q, 72A (protein, listed as Rattus norvegicus, PEPTIDE (1)...(131) wild-type rat intestinal fatty acid binding protein) AFDGTWKVDRNENYEKFMEKMGINVVKRKLGAHDNLKLTITQEGNKFTVKESSNFRNIDVVFELGVDFAYSAADGTELTGTWTMEGNKLVGKFKRVDNGKELIAVREISGNELIQTQTYEGVEAKRIFKKE	1.24 and 1.236	1.13 and 1.134	1.37 and 1.374	0.63 and 0.631	1.21 and 1.214	
74F, 72A (protein, listed as Rattus norvegicus, PEPTIDE (1)...(131) wild-type rat intestinal fatty acid binding protein) AFDGTWKVDRNENYEKFMEKMGINVVKRKLGAHDNLKLTITQEGNKFTVKESSNFRNIDVVFELGVDFAYSAAFGTELTGTWTMEGNKLVGKFKRVDNGKELIAVREISGNELIQTYTYEGVEAKRIFKKE	1.36 and 1.04		1.19 and 0.67	1.23 and 0.93	0.44	1.02
117M, 72A (protein, listed as Rattus norvegicus, PEPTIDE (1)...(131) wild-type rat intestinal fatty acid binding protein) AFDGTWKVDRNENYEKFMEKMGINVVKRKLGAHDNLKLTITQEGNKFTVKESSNFRNIDVVFELGVDFAYSAADGTELTGTWTMEGNKLVGKFKRVDNGKELIAVREISGNELIQTMTYEGVEAKRIFKKE	1.36	1.32	1.31	1.14	1.27	
102D, 72A (protein, listed as Rattus norvegicus, PEPTIDE (1)...(131) wild-type rat intestinal fatty acid binding protein) AFDGTWKVDRNENYEKFMEKMGINVVKRKLGAHDNLKLTITQEGNKFTVKESSNFRNIDVVFELGVDFAYSAADGTELTGTWTMEGNKLVGKFKRVDNGKEDIAVREISGNELIQTYTYEGVEAKRIFKKE	0.61	0.59	0.63	0.28	0.52	
117K, 72A (protein, listed as Rattus norvegicus, PEPTIDE (1)...(131) wild-type rat intestinal fatty acid binding protein) AFDGTWKVDRNENYEKFMEKMGINVVKRKLGAHDNLKLTITQEGNKFTVKESSNFRNIDVVFELGVDFAYSAADGTELTGTWTMEGNKLVGKFKRVDNGKELIAVREISGNELIQTKTYEGVEAKRIFKKE	0.37	0.04	0.43	0.22	0.34	
117G, 72A (protein, listed as Rattus norvegicus, PEPTIDE (1)...(131) wild-type rat intestinal fatty acid binding protein) AFDGTWKVDRNENYEKFMEKMGINVVKRKLGAHDNLKLTITQEGNKFTVKESSNFRNIDVVFELGVDFAYSAADGTELTGTWTMEGNKLVGKFKRVDNGKELIAVREISGNELIQTGTYEGVEAKRIFKKE	0.85	0.84	0.92	0.39	0.88	
117P, 72A (protein, listed as Rattus norvegicus, PEPTIDE (1)...(131) wild-type rat intestinal fatty acid binding protein) AFDGTWKVDRNENYEKFMEKMGINVVKRKLGAHDNLKLTITQEGNKFTVKESSNFRNIDVVFELGVDFAYSAADGTELTGTWTMEGNKLVGKFKRVDNGKELIAVREISGNELIQTPTYEGVEAKRIFKKE	0.83	0.73	0.86	0.38	0.80	
117R, 72A (protein, listed as Rattus norvegicus, PEPTIDE (1)...(131) wild-type rat intestinal fatty acid binding protein) AFDGTWKVDRNENYEKFMEKMGINVVKRKLGAHDNLKLTITQEGNKFTVKESSNFRNIDVVFELGVDFAYSAADGTELTGTWTMEGNKLVGKFKRVDNGKELIAVREISGNELIQTRTYEGVEAKRIFKKE	0.70	0.61	0.70	0.31	0.64	
117N, 72A (protein, listed as Rattus norvegicus, PEPTIDE (1)...(131) wild-type rat intestinal fatty acid binding protein) AFDGTWKVDRNENYEKFMEKMGINVVKRKLGAHDNLKLTITQEGNKFTVKESSNFRNIDVVFELGVDFAYSAADGTELTGTWTMEGNKLVGKFKRVDNGKELIAVREISGNELIQTNTYEGVEAKRIFKKE	1.37	1.40	1.35	1.19	1.33	
117I, 72A (protein, listed as Rattus norvegicus, PEPTIDE (1)...(131) wild-type rat intestinal fatty acid binding protein) AFDGTWKVDRNENYEKFMEKMGINVVKRKLGAHDNLKLTITQEGNKFTVKESSNFRNIDVVFELGVDFAYSAADGTELTGTWTMEGNKLVGKFKRVDNGKELIAVREISGNELIQTITYEGVEAKRIFKKE	0.68 and 0.666	0.67 and 0.676	0.80 and 0.789	0.41 and 0.408	0.68 and 0.674	
117L, 72A (protein, listed as Rattus norvegicus, PEPTIDE (1)...(131) wild-type rat intestinal fatty acid binding protein) AFDGTWKVDRNENYEKFMEKMGINVVKRKLGAHDNLKLTITQEGNKFTVKESSNFRNIDVVFELGVDFAYSAADGTELTGTWTMEGNKLVGKFKRVDNGKELIAVREISGNELIQTLTYEGVEAKRIFKKE	0.39	0.35	0.43	0.29	0.38	
117F, 72A (protein, listed as Rattus norvegicus, PEPTIDE (1)...(131) wild-type rat intestinal fatty acid binding protein) AFDGTWKVDRNENYEKFMEKMGINVVKRKLGAHDNLKLTITQEGNKFTVKESSNFRNIDVVFELGVDFAYSAADGTELTGTWTMEGNKLVGKFKRVDNGKELIAVREISGNELIQTFTYEGVEAKRIFKKE	1.38	1.37	1.36	1.20	1.33	
117H, 72A (protein, listed as Rattus norvegicus, PEPTIDE (1)...(131) wild-type rat intestinal fatty acid binding protein) AFDGTWKVDRNENYEKFMEKMGINVVKRKLGAHDNLKLTITQEGNKFTVKESSNFRNIDVVFELGVDFAYSAADGTELTGTWTMEGNKLVGKFKRVDNGKELIAVREISGNELIQTHTYEGVEAKRIFKKE	0.94 and 0.924	1.01 and 1.012	1.06 and 1.056	0.63 and 0.659	0.90 and 0.913	
